The RNAGym collection of RNA variant scans (doi:10.1073/pnas.2313332121)

B1: TPR t1 (parent)
chain: GACCAAUCUGCCCUCAGAGCUCGAGAACAUCUUCGGAUGCAGAGGAGGCAGGCUUCGGUGGCGCGAUAGCGCCAACGUCCUCAACCUCCAAUGCAUCCCACCACAUGAUGAUGCCUGAAGAGCCUUGGUUUUUUG

Variants of: B1
Experiment: polymerase ribozyme fitness, log enrichment relative to wild type (log ratio); higher = more active; in vitro selection for triplet polymerase activity
Outline: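 A heterodimeric triplet polymerase ribozyme had each of its subunits mutagenized by PCR into a library, which was transcribed. One round of in vitro selection, done in triplicate, annealed each library with a biotinylated primer, its partner subunit and triplets, then incubated it frozen at −7 °C before gel excision of extended constructs, streptavidin-bead capture and RT-PCR. Fitness is the logarithm of genotype enrichment relative to wild-type enrichment, based on Illumina sequencing of inputs and outputs and inverse-variance-weighted replicate averages. A base-2 logarithm is used, and genotypes were kept only with ≥10 input reads and ≥1 read per output.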

| Variant | polymerase ribozyme fitness (log ratio) |
| --- | --- |
| U78C U87G U126A | -2.18 |
| U78C U96G | -0.935 |
| U78C U109A G128A | -4.56 |
| U78C U112A C114G | -0.26 |
| U78G A95C | -0.597 |
| U78G A95G U125G | -1.07 |
| U78G C89A | -3.29 |
| U78G C98U | -0.646 |
| U78G C102G | -4.94 |
| U78G C114G U129A | -4.16 |
| U78G G120A | 0.634 |
| U78G U116A | -3 |
| C79A A83G C115G C123A U131G | -4.48 |
| C79A A91C | -3.69 |
| C79A C80A C88A | -5.16 |
| C79A C82U | -0.745 |
| C79A C82U C94A G113A G128U | -5.6 |
| C79A C99A | -6.57 |
| C79A C115A G127C | -1.07 |
| C79A C123U | 0.304 |
| C79A C124A | 0.574 |

| Variant | polymerase ribozyme fitness (log ratio) |
| --- | --- |
| C79A G110A | -2.55 |
| C79G A83G G117C | -5.42 |
| C79G A84C | -2.61 |
| C79G A84C C104A | -4.75 |
| C79G A121U | 0.316 |
| C79G C89A G127U | -4.91 |
| C79G C89U G117A | -4.75 |
| C79G C94A | -2.62 |
| C79G C94G G113A | -5.05 |
| C79G C102U | -4.67 |
| C79G C124G | -0.0918 |
| C79G G93U C115G | -4.32 |
| C79G U126G | -2.94 |
| C79G U131G | -1.06 |
| C79U A90G G107U | -4.88 |
| C79U A111U U112A C124A | 1.11 |
| C79U A121C | 1.81 |
| C79U C80A | -3.65 |
| C79U C80U C104U | -1.54 |
| C79U C80U U116C | -4.27 |
| C79U C102U G117A | -3.4 |

| Variant | polymerase ribozyme fitness (log ratio) |
| --- | --- |
| C79U C114A | -0.742 |
| C79U G110C | -2.71 |
| C79U G117C | -3.9 |
| C79U U129C | 0.161 |
| C80A A95U G120A U130G | -3.52 |
| C80A A121G | -2.89 |
| C80A C123U | -2.06 |
| C80A C124A | -0.56 |
| C80A G113A G135A | -3.66 |
| C80A G117A | -4.27 |
| C80A U96C | -3.2 |
| C80G A105C U116A C123G | -7.31 |
| C80G C104U | -5.71 |
| C80G C124A | -5.18 |
| C80G G127U | -6.14 |
| C80U A84U C89U A119G C123A | 0.318 |
| C80U A121U | 1.34 |
| C80U C88G | -1.25 |
| C80U C88U A111G C114A | -4.84 |
| C80U C94U | -0.851 |
| C80U C101U A111U U116A | -4.81 |

| Variant | polymerase ribozyme fitness (log ratio) |
| --- | --- |
| C80U C101U G128A | -2.13 |
| C80U C114G | -3.48 |
| C80U C115G | -0.729 |
| C80U C123A | -0.37 |
| C80U G93A | -1.52 |
| C80U G113U | -3.41 |
| C80U G120C | 0.704 |
| C80U G120C G127C | -0.289 |
| C80U G120U | -0.245 |
| C80U G120U U129G | -0.816 |
| C80U G128C | -3.33 |
| C80U G135U | -0.986 |
| U81A A90C U92C | -4.05 |
| U81A A91U C101U | -3.43 |
| U81A A105U U132C | -2.04 |
| U81A A121C | 0.745 |
| U81A C89U | -0.112 |
| U81A C115G | -2.4 |
| U81A G113C U130G U132A | -3.31 |
| U81A G120A | -0.668 |
